Measured values taken from publication PMC10878242 (Journal of Virology, 2024).

B1: mAb-1E7 (antibody, V domains shown)
VH: QIQLVQSGPELKKPGETVKISCKASGYIFTNYGMNWVKQAPGKGFKWMGWINTYTGEPTYVDDFKGRFAFSLETSASTVYLQINNLKNEDTATYFCARSLENWGQGTTLTVSS
VL: DIVMTQAAFSNPVTLGTSASISCRSSKSLLHSNGITYLYWYLQKPGQSPQLLIYQMSNLASGVPDRFSSSGSGTDFTLRISRVEAEDVGVYYCAQNVELPTFGGGTKLEIK
B2: mAb-3G4 (antibody, V domains shown)
VH: QVTLKESGPGILQPSQTLSLTCSFSGFSLSTSGMVVGWIRQPSGKGLEWLAHIWWDDVKRYNPALKSRLTISKDTSNSQVFLKIASVDTADTATYYCARSPFFAYWGQGTLVTISP
VL: DIQMTQSPSSLSASLGERVSLTCRASQDIGSNLNWLQKRSDGSIKRLIYATSSLDSGVPKRFSGSRSGSDYSLTISSLESEDFVDYYCLQYATSPYTFGGGTKLEIK

Experiments:
Settings in all cases: both partners purified
[1] = target: PCV2-Cap peptide aa 73–87 (Porcine circovirus 2, PCV2b strain SH); experiment: ELISA; synthetic 15-mer peptides coated (1 µg/well); mAb-1E7 or mAb-3G4 added; detection with goat anti-mouse IgG
[2] = target: PCV2-Cap peptide aa 74–88 (Porcine circovirus 2, PCV2b strain SH); experiment: as above
[3] = target: PCV2-Cap peptide aa 75–89 (Porcine circovirus 2, PCV2b strain SH); experiment: as above
[4] = target: T1, recombinant PCV2 capsid protein (PCV2-Cap) (Porcine circovirus 2, strain of …, UniProt D6R1Z5); experiment: Western blot
T1 construct: also called monomeric PCV2-Cap

[5] = target: PCV2-Cap peptide aa 69–83 (Porcine circovirus 2, PCV2b strain SH); experiment: ELISA; synthetic 15-mer peptides coated (1 µg/well); mAb-1E7 or mAb-3G4 added; detection with goat anti-mouse IgG

Binder | binding result [1] | binding result [2] | binding result [3] | binding result [4] | binding result [5]
B1 | binds | binds | binds | – | –
B2 | – | – | – | binds | binds
